The values that follow come from patent publication US20190119389A1 (POTENZA THERAPEUTICS, published 2019).

Assay [1] has as its target T1, monomeric mutant NRP1 b1 K352G (human, UniProt O14786 273-427, limits assumed).
T1 construct: Single point mutant of the human NRP1 b1 domain
T1 chain: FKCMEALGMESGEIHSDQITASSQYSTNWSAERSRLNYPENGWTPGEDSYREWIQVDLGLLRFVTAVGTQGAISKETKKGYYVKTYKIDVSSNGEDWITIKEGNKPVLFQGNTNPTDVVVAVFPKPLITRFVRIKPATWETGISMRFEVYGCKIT
Put plainly: BLI Octet, MAB12 captured on anti-human Fc sensors, monomeric mutant NRP1 b1.

Assay [2] addresses T2, monomeric mutant NRP1 b1 T349A (human, UniProt O14786 273-427, limits assumed).
T2 construct: Single point mutant of the human NRP1 b1 domain
T2 chain: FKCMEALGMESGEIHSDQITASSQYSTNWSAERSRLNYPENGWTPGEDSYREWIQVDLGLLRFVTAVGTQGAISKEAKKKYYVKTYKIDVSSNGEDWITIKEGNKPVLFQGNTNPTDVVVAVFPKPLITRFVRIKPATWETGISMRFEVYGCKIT
The assay is described as above.

Assay [3] deals with T3, monomeric mutant NRP1 b1 E412H (human, UniProt O14786 273-427, limits assumed).
T3 construct: Single point mutant of the human NRP1 b1 domain
T3 chain: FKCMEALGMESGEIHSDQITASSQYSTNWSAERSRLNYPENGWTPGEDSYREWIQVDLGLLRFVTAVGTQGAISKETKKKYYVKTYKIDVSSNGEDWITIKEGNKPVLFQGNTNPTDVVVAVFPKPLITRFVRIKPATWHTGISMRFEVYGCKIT
The description is as above.

The target in assay [4] is T4, monomeric mutant NRP1 b1 T413A (human, UniProt O14786 273-427).
T4 chain: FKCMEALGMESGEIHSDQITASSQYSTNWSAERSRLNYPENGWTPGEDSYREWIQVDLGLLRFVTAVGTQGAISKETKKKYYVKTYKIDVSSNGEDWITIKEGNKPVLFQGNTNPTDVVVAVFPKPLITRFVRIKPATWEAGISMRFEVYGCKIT
The assay is described as above.

Assay [5] has as its target T5, monomeric mutant NRP1 b1 P317A (human, UniProt O14786 273-427, limits assumed).
T5 construct: Single point mutant of the human NRP1 b1 domain
T5 chain: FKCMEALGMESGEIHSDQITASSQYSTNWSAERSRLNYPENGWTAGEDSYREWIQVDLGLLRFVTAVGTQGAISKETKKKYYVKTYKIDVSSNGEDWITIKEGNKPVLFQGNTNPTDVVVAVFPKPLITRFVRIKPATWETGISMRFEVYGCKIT
The assay is described as above.

Assay [6] has as its target T6, monomeric mutant NRP1 b1 D320A (human, UniProt O14786 273-427, limits assumed).
T6 construct: Single point mutant of the human NRP1 b1 domain
T6 chain: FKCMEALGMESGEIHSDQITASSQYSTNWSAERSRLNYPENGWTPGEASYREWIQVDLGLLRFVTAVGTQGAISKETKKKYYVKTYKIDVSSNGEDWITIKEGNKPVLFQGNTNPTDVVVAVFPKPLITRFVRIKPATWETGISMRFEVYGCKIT
The assay is described as above.

The target in assay [7] is T7, monomeric mutant NRP1 b1 Y353A (human, UniProt O14786 273-427, limits assumed).
T7 construct: Single point mutant of the human NRP1 b1 domain
T7 chain: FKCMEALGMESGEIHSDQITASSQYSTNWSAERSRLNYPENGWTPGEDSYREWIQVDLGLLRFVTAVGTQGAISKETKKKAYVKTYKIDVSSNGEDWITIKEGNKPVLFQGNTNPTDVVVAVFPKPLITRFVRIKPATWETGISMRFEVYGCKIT
The assay is described as above.

Assay [8] deals with T8, monomeric mutant NRP1 b1 K351N (human, UniProt O14786 273-427, limits assumed).
T8 construct: Single point mutant of the human NRP1 b1 domain
T8 chain: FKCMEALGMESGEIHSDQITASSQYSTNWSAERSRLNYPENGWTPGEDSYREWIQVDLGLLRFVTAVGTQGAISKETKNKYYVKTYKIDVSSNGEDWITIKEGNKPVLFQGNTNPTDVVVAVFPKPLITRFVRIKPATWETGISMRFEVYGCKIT
The description is as above.

The target of assay [9] is T9, monomeric mutant NRP1 b1 Y354A (human, UniProt O14786 273-427, limits assumed).
T9 construct: Single point mutant of the human NRP1 b1 domain
T9 chain: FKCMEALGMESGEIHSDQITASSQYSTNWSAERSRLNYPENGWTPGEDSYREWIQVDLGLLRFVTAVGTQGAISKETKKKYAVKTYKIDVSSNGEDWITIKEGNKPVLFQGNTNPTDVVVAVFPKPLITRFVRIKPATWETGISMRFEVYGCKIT
The assay is described as above.

Assay [10] deals with T10, Human NRP-1 His (human, UniProt O14786 22-856).
T10 construct: Recombinant monomeric protein; Biotinylated in the MSD-SET assay; also called hNRP-1; not shown: His tag
T10 sequence (O14786 22-856 V179A limits assumed): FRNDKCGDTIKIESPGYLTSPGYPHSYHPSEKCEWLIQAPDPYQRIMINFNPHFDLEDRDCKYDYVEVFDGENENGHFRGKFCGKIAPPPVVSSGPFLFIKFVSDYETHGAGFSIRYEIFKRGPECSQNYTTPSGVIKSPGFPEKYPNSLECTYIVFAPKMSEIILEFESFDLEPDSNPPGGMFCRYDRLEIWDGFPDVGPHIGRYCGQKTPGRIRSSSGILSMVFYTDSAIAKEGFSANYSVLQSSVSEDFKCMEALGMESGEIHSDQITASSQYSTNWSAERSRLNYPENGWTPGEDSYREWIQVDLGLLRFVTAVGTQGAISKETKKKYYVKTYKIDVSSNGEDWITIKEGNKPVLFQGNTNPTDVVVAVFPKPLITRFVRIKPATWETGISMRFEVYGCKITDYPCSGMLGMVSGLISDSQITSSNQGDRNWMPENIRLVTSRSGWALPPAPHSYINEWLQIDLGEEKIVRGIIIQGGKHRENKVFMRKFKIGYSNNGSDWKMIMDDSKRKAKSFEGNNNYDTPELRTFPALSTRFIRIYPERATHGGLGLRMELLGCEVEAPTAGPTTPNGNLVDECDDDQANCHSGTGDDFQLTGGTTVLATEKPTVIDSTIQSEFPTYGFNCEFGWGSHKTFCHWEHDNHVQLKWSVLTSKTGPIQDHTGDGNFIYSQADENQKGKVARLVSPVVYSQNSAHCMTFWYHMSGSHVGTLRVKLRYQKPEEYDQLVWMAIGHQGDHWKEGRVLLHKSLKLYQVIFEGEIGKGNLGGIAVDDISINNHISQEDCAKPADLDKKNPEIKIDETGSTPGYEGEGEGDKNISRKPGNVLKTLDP
Briefly: BLI ForteBio, IgG1 N297A on AHQ sensor, 100 nM monomeric antigen, 1:1 fit.

Assay [11] has as its target T11, Cyno NRP-1 His (cynomolgus monkey, UniProt O14786 22-856 (human entry), limits assumed).
T11 construct: Recombinant monomeric protein; also called cynomolgus monkey NRP-1-His; cNRP-1; not shown: His tag
T11 chain: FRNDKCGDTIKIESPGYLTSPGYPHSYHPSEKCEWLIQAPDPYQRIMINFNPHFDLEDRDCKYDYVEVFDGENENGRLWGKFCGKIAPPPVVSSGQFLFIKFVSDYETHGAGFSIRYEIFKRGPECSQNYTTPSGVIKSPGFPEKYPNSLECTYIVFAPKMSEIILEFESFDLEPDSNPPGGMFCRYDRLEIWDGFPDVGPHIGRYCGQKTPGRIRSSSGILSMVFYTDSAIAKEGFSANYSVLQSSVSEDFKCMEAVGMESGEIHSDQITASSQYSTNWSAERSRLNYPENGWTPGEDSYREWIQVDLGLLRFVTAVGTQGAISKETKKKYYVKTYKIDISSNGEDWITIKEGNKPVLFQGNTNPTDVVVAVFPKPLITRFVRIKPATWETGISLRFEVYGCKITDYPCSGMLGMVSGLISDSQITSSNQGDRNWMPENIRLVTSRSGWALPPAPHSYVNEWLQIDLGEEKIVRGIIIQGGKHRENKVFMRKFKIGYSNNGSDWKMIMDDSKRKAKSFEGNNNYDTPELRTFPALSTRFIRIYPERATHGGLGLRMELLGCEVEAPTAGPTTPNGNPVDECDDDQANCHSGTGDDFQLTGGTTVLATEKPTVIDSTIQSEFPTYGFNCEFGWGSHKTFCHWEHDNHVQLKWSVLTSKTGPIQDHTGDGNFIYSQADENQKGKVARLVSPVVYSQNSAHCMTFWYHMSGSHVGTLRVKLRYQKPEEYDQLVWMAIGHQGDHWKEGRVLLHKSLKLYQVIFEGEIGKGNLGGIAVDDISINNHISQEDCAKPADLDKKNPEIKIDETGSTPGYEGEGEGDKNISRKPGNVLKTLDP
The description is as above.

The target of assay [12] is T12, Mouse NRP-1 His (mouse, UniProt P97333 22-856).
T12 construct: Recombinant monomeric protein; also called mNRP-1; not shown: His tag
T12 sequence (P97333 22-856 limits assumed): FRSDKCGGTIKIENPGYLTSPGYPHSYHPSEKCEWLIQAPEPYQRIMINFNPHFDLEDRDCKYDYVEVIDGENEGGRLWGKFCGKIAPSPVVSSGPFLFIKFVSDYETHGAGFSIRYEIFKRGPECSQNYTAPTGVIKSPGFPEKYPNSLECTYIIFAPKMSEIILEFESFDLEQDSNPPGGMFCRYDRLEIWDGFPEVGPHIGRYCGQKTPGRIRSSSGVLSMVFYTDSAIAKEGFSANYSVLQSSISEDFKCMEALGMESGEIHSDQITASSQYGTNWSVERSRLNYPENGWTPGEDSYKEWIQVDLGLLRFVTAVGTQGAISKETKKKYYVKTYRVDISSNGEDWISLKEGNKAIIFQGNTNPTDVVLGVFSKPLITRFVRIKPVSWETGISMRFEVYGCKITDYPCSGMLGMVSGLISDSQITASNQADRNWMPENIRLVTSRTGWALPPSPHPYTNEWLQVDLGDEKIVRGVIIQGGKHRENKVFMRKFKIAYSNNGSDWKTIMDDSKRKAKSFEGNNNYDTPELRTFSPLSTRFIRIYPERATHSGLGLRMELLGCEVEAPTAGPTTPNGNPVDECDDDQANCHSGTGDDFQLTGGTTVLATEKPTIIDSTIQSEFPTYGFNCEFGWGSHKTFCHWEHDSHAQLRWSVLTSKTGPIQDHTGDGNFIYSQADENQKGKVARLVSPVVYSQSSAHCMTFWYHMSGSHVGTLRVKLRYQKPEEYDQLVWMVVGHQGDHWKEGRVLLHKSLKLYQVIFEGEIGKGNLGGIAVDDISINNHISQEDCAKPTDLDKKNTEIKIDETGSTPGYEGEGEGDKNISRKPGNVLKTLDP
The description is as above.

Assay [13] deals with T13, recombinant human NRP-1 (human, UniProt O14786 22-856, limits assumed).
T13 construct: also called biotinylated human NRP-1
T13 sequence (O14786 22-856 V179A limits assumed): as the sequence (O14786 22-856 V179A limits assumed) above
Briefly: blocking ELISA: SEMA3A coated, biotinylated human NRP-1 preincubated with IgG1 antibody; competitor SEMA3A.

In assay [14] the target is T13, recombinant human NRP-1. Briefly: blocking ELISA: human NRP-1 coated, VEGFA added with IgG1 antibody; competitor VEGFA.

B1: MAB12 (antibody, V domains shown)
VH: EVQLLESGGGLVQPGGSLRLSCAASGFTFSSVAMVWVRQAPGKGLEWVSAISGSGGATYYADSVEGRFTISRDNSKNTLYLQMNSLRAEDTAVYYCAKDPGYDSSRYYYSNYGMDVWGQGTTVTVSS
VL: DIQMTQSPSSLSASVGDRVTITCRASQSISSYLNWYQQKPGKAPKLLIYGASSLQSGVPSRFSGSGSGTDFTLTISSLQPEDFATYYCQQTYSLYTFGGGTKVEIK
As to B1, the binding result is given as “binds” in assay [1]; “binds” in assay [2]; “no binding” in assay [3]; “binds” in assay [4]; “binds” in [5]; “binds” in assay [6]. The figures for the binding result in assay [7], in [8] and in assay [9] were “binds”, “no binding” and “binds”, respectively. In addition, the results for the Kd in assay [10], in [11] and in [12] were 0.481 nM, 0.469 nM and 0.44 nM, respectively. Also, the IC50 in assay [13] amounted to 0.8 nM; in assay [14], 6 nM.
